From paper PMC3355227
Where no end group is shown, it is not given here. [ ]: non-standard residue; d: D form. The star is where a group is joined. pT = C[C@@H](OP(=O)(O)O)[C@H](N)C(=O)O; Butyl(4-Ph) = c1ccc(CCCC*)cc1

B1: peptide GPMQSpTPLNG-OH (9) (peptide)
peptide: GPMQS[pT]PLNG-OH
modifications: N-terminus assumed
SMILES: CSCC[C@H](NC(=O)[C@@H]1CCCN1C(=O)CN)C(=O)N[C@@H](CCC(N)=O)C(=O)N[C@@H](CO)C(=O)N[C@H](C(=O)N1CCC[C@H]1C(=O)N[C@@H](CC(C)C)C(=O)N[C@@H](CC(N)=O)C(=O)NCC(=O)O)[C@@H](C)OP(=O)(O)O

What was measured:
HA-EGFP-Plk1, P53350 = assay: ELISA; conditions: remark: other sources report otherwise
[1] = biological target: Plk1 polo-box domain (PBD), purified protein of the fluorescence polarization assay; assay: fluorescence polarisation

HA-EGFP-Plk1, P53350, sequence (P53350 whole entry, the tested form may be a part): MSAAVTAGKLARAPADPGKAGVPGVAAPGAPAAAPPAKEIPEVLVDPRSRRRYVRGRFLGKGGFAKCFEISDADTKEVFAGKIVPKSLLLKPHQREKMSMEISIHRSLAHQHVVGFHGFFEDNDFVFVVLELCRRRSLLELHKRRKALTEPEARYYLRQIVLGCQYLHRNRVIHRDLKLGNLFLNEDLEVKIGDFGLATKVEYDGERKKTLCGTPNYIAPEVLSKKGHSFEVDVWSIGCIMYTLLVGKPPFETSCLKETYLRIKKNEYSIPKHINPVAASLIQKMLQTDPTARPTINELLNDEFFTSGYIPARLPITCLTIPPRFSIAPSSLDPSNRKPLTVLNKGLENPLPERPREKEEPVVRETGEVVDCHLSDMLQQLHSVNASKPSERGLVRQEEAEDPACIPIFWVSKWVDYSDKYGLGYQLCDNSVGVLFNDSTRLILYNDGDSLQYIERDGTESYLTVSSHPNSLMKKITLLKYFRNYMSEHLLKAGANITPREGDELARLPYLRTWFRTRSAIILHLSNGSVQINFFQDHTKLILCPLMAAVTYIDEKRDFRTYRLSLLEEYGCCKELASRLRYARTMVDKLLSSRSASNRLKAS

Row | Binder | IC50 (HA-EGFP-Plk1, P53350) [nM] | IC50 [1] [nM]
1 | P(Butyl(4-Ph))LHA[pT] [peptide 7(S4A)] | 43000 | 4150
2 | P(Butyl(4-Ph))LHS[pT] [peptide 8] |  | 38
3 | B1 |  | 1120
